Assay results from US20030082561.

Columns and labels:
Test in all cases: EMSA
[1] = test system: ZFP Clone 5 (BCTV L1 6-finger) (artificial); details: 10 mM Tris-HCl pH 7.5, 100 mM NaCl, 1 mM MgCl2, 0.1 mM ZnCl2, 1 mg/ml BSA, 10% glycerol, poly(dA-dT)2, on ice
[2] = test system: ZFP Clone 7 (6-finger) (artificial); details: probe flanks not given; 0.1 mM ZnCl2, 100 mM NaCl, on ice
[3] = test system: ZFP Clone 6 (6-finger) (artificial); details: probe flanks not given; 0.1 mM ZnCl2, 100 mM NaCl, on ice

For “TATATATATTGGGTGCTTTGGGTGCTCTATATATA (double strand) [L1 19-bp target probe]”, the Kd [1] was under 3 pM.
Sequence “TACGTGGCATTGGGTGCTC (double strand) [Clone 7 target]” has a Kd [2] of under 3 pM.
With “AGTAAGGTAGGAGATGATA (double strand) [Clone 6 target]” the Kd [3] was under 3 pM.
